Data on 2 molecules can be found in patent publication US20040250304A1 (EISAI R AND D MANAGEMENT, published 2004).

In test [1] the target is T1, synthetic Aβ (1-42) peptide (UniProt P05067 672-713).
T1 construct: domain: Aβ (1-42); also called beta-amyloid; amyloid-beta peptide
The test can be described thus: Aβ (1-42) binding to HEK293 cells expressing human CLAC-P; Western blotting.

Test [2] deals with T1, synthetic Aβ (1-42) peptide. The test can be described thus: solid phase binding: Aβ (1-42) immobilized on 96-well plates, culture supernatant applied, detection with anti-CLAC antibody and peroxidase secondary antibody, TMB; ten trials. How it is done: In vitro binding of CLAC to Aβ was performed according to a method of Webster et al. (Am. J. Pathol., 150, 1531 (1997)).
The transformant (strain 9D2-1) permanently expressing human CLAC-P obtained in Example 3 was selection-cultured in DMEM medium containing 10% FBS and hygromycin for 4 days, and the culture supernatant was collected. Fifty μl (0.1 mg/ml) of synthetic Aβ (1-42) (Bachem) was immobilized to each well of 96-well micro-well plates (Greiner), and dried in a desiccator. Thereafter, blocking was performed with PBS-T containing 1% gelatin (Wako Junyaku) for 1 hour, and washed with PBS-T for 10 min (3×), and the culture supernatant obtained was applied. Similarly, culture supernatant of control HEK293 cells used in Example 3 was applied. After reaction at room temperature for 1 hour, washed with PBS-T for 10 min (5×), and then reacted with anti-CLAC antibody diluted with similar blocking solution (1/5000) at room temperature for 1 hour. After washing with PBS-T for 10 min (5×), reacted with a secondary antibody (anti-rabbit Ig, horseradish peroxidase bound whole antibody (Amersham)) diluted with similar blocking solution (1/5000) at room temperature for 1 hour. After washing with PBS-T for 10 min (5×), colour was developed with TMB reagent (Kirkegard & Perry Laboratories).

T1 sequence (P05067 672-713 limits assumed): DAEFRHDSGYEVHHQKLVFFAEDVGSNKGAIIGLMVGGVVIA

B1: human CLAC-P (precursor of CLAC), full length (receptor)
chain: MLLKKHAGKGGGREPRSEDPTPAEQHCSRTMPPCAVLAALLSVVAVVSCLYLGVKTNDLQARIAALESAKGAPSIHLLPDTLDHLKTMVQEKVERLLAQKSYEHMAKIRIAREAPSECNCPAGPPGKRGKRGRRGESGPPGQPGPQGPPGPKGDKGEQGDQGPRMVFPKINHGFLSADQQLIKRRLIKGDQGQAGPPGPPGPPGPRGPPGDTGKDGPRGMPGVPGEPGKPGEQGLMGPLGPPGQKGSIGAPGIPGMNGQKGEPGLPGAVGQNGIPGPKGEPGEQGEKGDAGENGPKGDTGEKGDPGSSAAGIKGEPGESGRPGQKGEPGLPGLPGLPGIKGEPGFIGPQGEPGLPGLPGTKGERGEAGPPGRGERGEPGAPGPKGKQGESGTRGPKGSKGDRGEKGDSGAQGPRGPPGQKGDQGATKIIDYNGNLHEALQRITTLTVTGPPGPPGPQGLQGPKGEQGSPGIPGMDGEQGLKGSKGDMGDPGMTGEKGGIGLPGLPGANGMKGEKGDSGMPGPQGPSIIGPPGPPGPHGPPGPMGPHGLPGPKGTDGPMGPHGPAGPKGERGEKGAMGEPGPRGPYGLPGKDGEPGLDGFPGPRGEKGDLGEKGEKGFRGVKGEKGEPGQPGLDGLDAPCQLGPDGLPMPGCWQK
notes: Type II single pass transmembrane protein of 654 amino acids, expressed permanently in HEK293 cells (strains 9D2-1, 9D2-2, 9D2-11); also called full length recombinant CLAC-P protein; 9D2 antigen precursor
Regarding B1, the binding result in test [1] is reported as “binds”.

B2: CLAC secreted by HEK293 transformant strain 9D2-1 permanently expressing human CLAC-P (other)
chain: EAPSECNCPAGPPGKRGKRGRRGESGPPGQPGPQGPPGPKGDKGEQGDQGPRMVFPKINHGFLSADQQLIKRRLIKGDQGQAGPPGPPGPPGPRGPPGDTGKDGPRGMPGVPGEPGKPGEQGLMGPLGPPGQKGSIGAPGIPGMNGQKGEPGLPGAVGQNGIPGPKGEPGEQGEKGDAGENGPKGDTGEKGDPGSSAAGIKGEPGESGRPGQKGEPGLPGLPGLPGIKGEPGFIGPQGEPGLPGLPGTKGERGEAGPPGRGERGEPGAPGPKGKQGESGTRGPKGSKGDRGEKGDSGAQGPRGPPGQKGDQGATKIIDYNGNLHEALQRITTLTVTGPPGPPGPQGLQGPKGEQGSPGIPGMDGEQGLKGSKGDMGDPGMTGEKGGIGLPGLPGANGMKGEKGDSGMPGPQGPSIIGPPGPPGPHGPPGPMGPHGLPGPKGTDGPMGPHGPAGPKGERGEKGAMGEPGPRGPYGLPGKDGEPGLDGFPGPRGEKGDLGEKGEKGFRGVKGEKGEPGQPGLDGLDAPCQLGPDGLPMPGCWQK
modifications: Usually, the first amino acid Glu of CLAC is cyclized to be pyroglutamic acid residue
notes: also called crude purified CLAC; culture supernatant of transformant permanently expressing CLAC-P
Turning to B2, in test [2], the “fold colour development against control HEK293 supernatant” value is about 50 times.
